From patent US20110177071A1 (PERSEID THERAPEUTICS, published 2011)
Where a chain is given by its changes, count along the chain named. Names and notes keep the numbering of the source.

B1: D1T-IgG2 (Fc fusion)
chain: MHVAQPAVVLASSRGIASFVCEYESPHKANEIRVTVLRQANSQVTEVCAMTYMKGDELTFLDDPFCTGTFSGNQVNLTIQGLRAADTGLYICKVELMYPPPYYLGIGNGTQIYVIDPEPCPDSDERKCCVECPPCPAPPVAGPSVFLFPPKPKDTLMISRTPEVTCVVVDVSHEDPEVQFNWYVDGVEVHNAKTKPREEQFNSTFRVVSVLTVVHQDWLNGKEYKCKVSNKGLPAPIEKTISKTKGQPREPQVYTLPPSREEMTKNQVSLTCLVKGFYPSDIAVEWESNGQPENNYKTTPPMLDSDGSFFLYSKLTVDKSRWQQGNVFSCSVMHEALHNHYTQKSLSLSPG
B2: D3-24-IgG2 (Fc fusion)
chain: B1 chain with H27G, N41G, D56N, F65S, A85M, I106F
B3: D3-21-IgG2 (Fc fusion)
chain: B1 chain with H27G, N41D, D56N, F65S, A85M, I106F
B4: D3-26-IgG2 (Fc fusion)
chain: B1 chain with E24A, H27G, N41D, D56N, F65S, A85M
B5: D3-33-IgG2 (Fc fusion)
chain: B1 chain with H27G, Q39K, N41D, G55E, F65S
B6: D26-IgG2 (Fc fusion)
chain: B1 chain with S25A, I32V, Q39E, N41G, K54V, G55E, F65S, I106L
B7: D5-IgG2 (Fc fusion)
chain: B1 chain with E24A, H27G, N30T, I32V, N41D, M50A, K54M, F65I, A85M
B8: D21-IgG2 (Fc fusion)
chain: MHVAQPAVVLASSRGIASFVCEYSAPHNADEIRVTVLRKASSQVTEVCAMTYMEEDELTFLDDPTCTGTFSGNQVNLTIQGLRAVDTGLYICKVELMYPPPYYLGFGNGTQIYVIDPEPCPDSDERKCCVECPPCPAPPVAGPSVFLFPPKPKDTLMISRTPEVTCVVVDVSHEDPEVQFNWYVDGVEVHNAKTKPREEQFNSTFRVVSVLTVVHQDWLNGKEYKCKVSNKGLPAPIEKTISKTKGQPREPQVYTLPPSREEMTKNQVSLTCLVKGFYPSDIAVEWESNGQPENNYKTTPPMLDSDGSFFLYSKLTVDKSRWQQGNVFSCSVMHEALHNHYTQKSLSLSPG
B9: D3-5-IgG2 (Fc fusion)
chain: B1 chain with H27G, N41G, M50A, F65S, I106F
B10: D3-16-IgG2 (Fc fusion)
chain: B1 chain with H27G, N41G, F65S, A85M
B11: D31-IgG2 (Fc fusion)
chain: B8 chain with S24E, K39Q, S41G, E54V, D63K, P64S, T65I, V85M, F106I
B12: D24-IgG2 (Fc fusion)
chain: B1 chain with H27G, Q39K, N41G, G55E, F65S, I106L
B13: D3-8-IgG2 (Fc fusion)
chain: B1 chain with H27G, N41G, P64S, F65S, I106F
B14: D27-IgG2 (Fc fusion)
chain: B1 chain with H27G, I32V, Q39E, N41G, K54V, G55E, F65S, I106L
B15: D3-1-IgG2 (Fc fusion)
chain: B1 chain with E24A, H27G, N41G, F65S, I106F
B16: D29-IgG2 (Fc fusion)
chain: B8 chain with S24E, N28K, S41D, E54M, T65S, V85M, F106L
B17: D3-28-IgG2 (Fc fusion)
chain: B1 chain with H27G, N41D, D56N, F65I, A85M
B18: D4-IgG2 (Fc fusion)
chain: B8 chain with A25S, H27G, N28K, K39Q, E55G
notes: also called clone D4
B19: D3-19-IgG2 (Fc fusion)
chain: B1 chain with H27G, N41D, D56N, F65S
B20: D6-IgG2 (Fc fusion)
chain: B1 chain with E24A, H27G, N30T, N41D, K54M, F65I, A85M
B21: D3-66-IgG2 (Fc fusion)
chain: B1 chain with E24A, H27G, I32V, N41D, F65I, A85M, L104E
B22: D3-23-IgG2 (Fc fusion)
chain: B1 chain with H27G, N41D, D56N, F65S, I106F
B23: D3-76-IgG2 (Fc fusion)
chain: B1 chain with E24A, H27G, I32V, N41D, G55E, F65I, A85M
B24: D28-IgG2 (Fc fusion)
chain: B1 chain with S25A, I32V, N41G, K54M, G55E, F65S, I106L
B25: D20-IgG2 (Fc fusion)
chain: B1 chain with N30T, N41D, K54M, G55E, F65I, A85M
B26: D23-IgG2 (Fc fusion)
chain: B8 chain with D30A, S41G, E54K, T65S, V85A, F106L
B27: D3-30-IgG2 (Fc fusion)
chain: B1 chain with H27G, N41D, F65I, A85M
B28: D3-25-IgG2 (Fc fusion)
chain: B1 chain with H27G, N41G, D56N, F65S
B29: D3-74-IgG2 (Fc fusion)
chain: B1 chain with E24A, H27G, N41D, D56N, F65I, A85M, L104E
B30: D3-22-IgG2 (Fc fusion)
chain: B1 chain with H27G, N41G, D56N, F65S, A85M
B31: D3-32-IgG2 (Fc fusion)
chain: B1 chain with H27G, Q39K, N41D, F65S
B32: D3-7-IgG2 (Fc fusion)
chain: B1 chain with H27G, N41G, D56N, F65S, I106F
notes: also called D3-07
B33: D3-9-IgG2 (Fc fusion)
chain: B1 chain with H27G, N41G, F65I, I106F

Biological target: T1, human CD86-murine Ig fusion protein (human)
T1 construct: Bought (Ancell #509-820); also called hCD86-mIg
T1 chain: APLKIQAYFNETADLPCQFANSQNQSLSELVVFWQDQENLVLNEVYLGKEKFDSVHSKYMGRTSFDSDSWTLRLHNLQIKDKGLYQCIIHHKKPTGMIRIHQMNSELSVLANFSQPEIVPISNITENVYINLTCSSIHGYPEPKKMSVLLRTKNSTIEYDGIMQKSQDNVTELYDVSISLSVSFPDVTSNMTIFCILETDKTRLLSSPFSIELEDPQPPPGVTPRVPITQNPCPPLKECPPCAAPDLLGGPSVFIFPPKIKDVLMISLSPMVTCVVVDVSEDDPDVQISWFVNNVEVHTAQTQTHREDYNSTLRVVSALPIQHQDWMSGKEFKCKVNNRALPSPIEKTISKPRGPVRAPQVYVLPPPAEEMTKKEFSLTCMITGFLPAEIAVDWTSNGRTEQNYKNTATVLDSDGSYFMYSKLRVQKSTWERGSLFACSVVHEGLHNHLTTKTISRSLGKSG
Assay: SPR Biacore, hCD86-mIg captured
Description: (§1) All Biacore™ analyses were performed on a Biacore™ 2000 system (GE Healthcare) at room temperature (RT, 25° C.). HBS-EP buffer (10 mM HEPES (pH 7.4), 150 mM NaCl, 3 mM EDTA, 0.005% surfactant P20) was used as the flow buffer for all experiments.
(§2) Rabbit anti-mouse IgG antibody (GE Healthcare, #BR-1005-14) was immobilized on CM5 sensor chips (GE Healthcare, #BR-1000-14) according to the manufacturer's protocol. Antibody was diluted to 30 μg/ml in immobilization buffer (10 mM sodium acetate, pH 5.0 (BR-1003-51)). At a flow rate of 5 μl/minute, sensor chip CM5 was activated with a 35 μl injection of a mixture of 1-Ethyl-3-[3-dimethylaminopropyl]carbodiimide hydrochloride (EDC) and N-hydroxysuccinimide (NHS) (made by mixing equal volumes of 11.5 mg/ml EDC and 75 mg/ml NHS) (GE Healthcare, #BR-1000-50), followed by a 35 μl injection of undiluted antibody. Un-reacted sites were quenched with 35 μl of 1M ethanolamine-HCL, pH 8.5 (GE Healthcare, #BR-1000-50). […] CTLA-4 ligands human CD80-murine Ig (hCD80-mIg) (Ancell, #510-820) or human CD86-murine Ig (hCD86-mIg) (Ancell, #509-820) were bound to antibody-coated sensor chips by injection of 10 μl or 16 μl, respectively, ligand solution (2 μg/ml protein in HBS-EP buffer [10 mM HEPES pH 7.4, 150 mM NaCl, 3 mM EDTA, 0.005% (v/v) surfactant P-20, GE Healthcare, #BR-1001-88]) at a flow rate of 10 μl/min.

| Binder | Kd [nM] | Binding Avidity (Relative to Orencia) [fold] |
| --- | --- | --- |
| B1 | 0.262 to 0.523 | – |
| B2 | 0.131 to 0.262 | – |
| B3 | 0.131 to 0.262 | – |
| B4 | 0.131 to 0.262 | – |
| B5 | < 0.131 | > 40 |
| B6 | < 0.131 | > 40 |
| B7 | 0.523 to 2.65 | – |
| B8 | 0.131 to 0.262 | – |
| B9 | 0.131 to 0.262 | – |
| B10 | < 0.131 | > 40 |
| B11 | 0.131 to 0.262 | – |
| B12 | < 0.131 | > 40 |
| B13 | 0.131 to 0.262 | – |
| B14 | < 0.131 | > 40 |
| B15 | < 0.131 | > 40 |
| B16 | < 0.131 | > 40 |
| B17 | 0.262 to 0.523 | – |

| Binder | Kd [nM] | Binding Avidity (Relative to Orencia) [fold] |
| --- | --- | --- |
| B18 | 0.523 to 2.65 | – |
| B19 | 0.131 to 0.262 | – |
| B20 | 0.523 to 2.65 | – |
| B21 | < 0.131 | > 40 |
| B22 | 0.131 to 0.262 | – |
| B23 | < 0.131 | > 40 |
| B24 | < 0.131 | > 40 |
| B25 | 0.131 to 0.262 | – |
| B26 | < 0.131 | > 40 |
| B27 | 0.131 to 0.262 | – |
| B28 | 0.131 to 0.262 | – |
| B29 | < 0.131 | > 40 |
| B30 | 0.131 to 0.262 | – |
| B31 | < 0.131 | > 40 |
| B32 | < 0.131 | > 40 |
| B33 | < 0.131 | > 40 |

Biological target: T2, human CD80-murine Ig fusion protein (human)
T2 construct: Bought (Ancell #510-820); also called hCD80-mIg; human CD80-murine IgG
T2 chain: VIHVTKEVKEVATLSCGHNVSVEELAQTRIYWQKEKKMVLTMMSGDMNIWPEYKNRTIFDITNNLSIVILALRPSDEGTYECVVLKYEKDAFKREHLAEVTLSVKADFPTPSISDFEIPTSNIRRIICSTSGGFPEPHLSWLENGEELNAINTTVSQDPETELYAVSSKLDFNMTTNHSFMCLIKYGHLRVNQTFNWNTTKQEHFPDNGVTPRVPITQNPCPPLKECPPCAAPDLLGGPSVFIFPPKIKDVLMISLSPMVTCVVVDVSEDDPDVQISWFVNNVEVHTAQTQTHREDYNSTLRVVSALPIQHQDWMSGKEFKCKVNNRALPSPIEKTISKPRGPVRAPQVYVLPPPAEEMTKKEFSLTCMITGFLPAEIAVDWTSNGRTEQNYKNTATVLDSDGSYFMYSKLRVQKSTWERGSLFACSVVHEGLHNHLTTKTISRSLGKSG
Assay: SPR Biacore, hCD80-mIg captured
Description: as §1, §2

| Binder | Binding Avidity (Relative to Orencia) [fold] | Kd [nM] |
| --- | --- | --- |
| B1 | > 2 | < 0.439 |
| B2 | – | 0.439 to 1.75 |
| B3 | – | 0.439 to 1.75 |
| B4 | – | 0.439 to 1.75 |
| B5 | – | 0.439 to 1.75 |
| B6 | – | 0.439 to 1.75 |
| B7 | – | 0.439 to 1.75 |
| B8 | – | 0.439 to 1.75 |
| B9 | – | 0.439 to 1.75 |
| B10 | – | 0.439 to 1.75 |
| B11 | – | 0.439 to 1.75 |
| B12 | – | 0.439 to 1.75 |
| B13 | – | 0.439 to 1.75 |
| B14 | – | 0.439 to 1.75 |
| B15 | – | 0.439 to 1.75 |
| B16 | – | 0.439 to 1.75 |
| B17 | – | 0.439 to 1.75 |

| Binder | Binding Avidity (Relative to Orencia) [fold] | Kd [nM] |
| --- | --- | --- |
| B18 | – | 0.439 to 1.75 |
| B19 | – | 0.439 to 1.75 |
| B20 | – | 0.439 to 1.75 |
| B21 | > 2 | < 0.439 |
| B22 | – | 0.439 to 1.75 |
| B23 | – | 0.439 to 1.75 |
| B24 | – | 0.439 to 1.75 |
| B25 | – | 0.439 to 1.75 |
| B26 | > 2 | < 0.439 |
| B27 | – | 0.439 to 1.75 |
| B28 | – | 0.439 to 1.75 |
| B29 | > 2 | < 0.439 |
| B30 | – | 0.439 to 1.75 |
| B31 | – | 0.439 to 1.75 |
| B32 | – | 0.439 to 1.75 |
| B33 | – | 0.439 to 1.75 |
